PMC2955809 (Structure (London, England : 1993), 2010)

Target: the molecule itself
Assay: SEC

B1: R.Eco29kI restriction endonuclease, E142Q (enzyme, E. coli strain 29K (plasmid pECO29), UniProt Q46944 1-214, looked up)
chain: MHNKKFDRSEHVYRNDSFLELIKDAVRFFSGTPVHSLPPPERFQGAGVYALYYTGHYSLYDEYSRINRLAYNLPIYVGKAVPAGWRQSRISDHETRAGSELSNRIREHGRNIAKTSNLDLCDFSCRFVIFEATGSDMISTVQAALIKIYKPLWNTVVDGFGNHTPGAGRFAQAKSDWDVIHPGREWAEKCTGVHSEPYFIEERIKQYFSKSNFT
stoichiometry N: 2
